The values below come from US11413334B2, “Lysin polypeptides active against Gram-negative bacteria” (CONTRAFECT CORPORATION, priority 2015, dated 2022).

One test relates to PAO1 cells. Briefly: Killing assay of GN4-derived peptides in Tris-HCl buffer. The following applies: FIG. 6; compared with parent GN4 fragment.
Test [1] has as its system P. aeruginosa strain PAO1. The format is cell-based, Pseudomonas aeruginosa. Particulars: E. coli clones of five Micavibrio aeruginosavorus hydrolases screened.
Test [2] relates to P. aeruginosa strain PAO1. As to the kind of experiment: Viability (CFU) assay of GN lysins in Tris-HCl buffer. The following applies: for antibacterial activity compared with EDTA and PMB / antibacterial activity compared with HuLYS or novobiocin: lysin 25 mcg/ml, 1 hour, 37° C., 20 mM Tris-HCl pH 7.2, FIG. 4; for antibacterial activity compared with EDTA and PMB: EDTA 1 mM, PMB 25 mcg/ml; for antibacterial activity compared with HuLYS or novobiocin: HuLYZ 25 mcg/ml, novobiocin 5 mcg/ml.

Entries after “also recorded” stand apart in the source; their conditions may differ.

As for “FGN4-4: FGN4-1 with a single C-terminal cysteine added (NKGDYQGAADQFPRWVNAGGKRLDGLVKRRAAERALFLEPLSC; artificially-created modified fragment of GN4 (SEQ ID NO 3))”, the “effect of the sequence modification on activity of the parent fragment” value in the test with PAO1 cells was “enhanced the activity of the FGN4-1”.
The same measure, in the same setting: in the case of “FGN4-2: FGN4-1 with the 11 C-terminal residues removed, 31 amino acids (NKGDYQGAADQFPRWVNAGGKRLDGLVKRRA; Pseudomonas phage PAJU2)” it was “did reduce activity”.

B1: GN37: 126 amino acid lysin polypeptide, peptidase M15 from Micavibrio aeruginosavorus (protein, listed as Micavibrio aeruginosavorus)
chain: MTYTLSKRSLDNLKGVHPDLVAVVHRAIQLTPVDFAVIEGLRSVSRQKELVAAGASKTMNSRHLTGHAVDLAAYVNGIRWDWPLYDAIAVAVKAAAKELGVAIVWGGDWTTFKDGPHFELDRSKYR
For B1, the “clearing zone on agar overlay plates” value in test [1] is on record as “yielded a clearing zone (halo)”. Also, in test [2] (after only 1 hour of treatment), the “decrease in bacterial viability” value is recorded as > 3 log. For the same molecule, in test [2], the “antibacterial activity compared with EDTA and PMB” value is given as “equivalent antibacterial activity; also recorded: stronger or equivalent antibacterial activity”; the “antibacterial activity compared with HuLYS or novobiocin” value was “greater antibacterial activity”.

B2: GN14: 189 amino acid lysin polypeptide, putative endolysin of Pseudomonas phage Lu11 (protein)
chain: MNNELPWVAEARKYIGLREDTSKTSHNPKLLAMLDRMGEFSNESRAWWHDDETPWCGLFVGYCLGVAGRYVVREWYRARAWEAPQLTKLDRPAYGALVTFTRSGGGHVGFIVGKDARGNLMVLGGNQSNAVSIAPFAVSRVTGYFWPSFWRNKTAVKSVPFEERYSLPLLKSNGELSTNEA
modifications: Pseudomonas phage Lu11
Consider B2, for which, in test [2], the “antibacterial activity compared with EDTA and PMB” value is “equivalent antibacterial activity; also recorded: stronger or equivalent antibacterial activity”; the “antibacterial activity compared with HuLYS or novobiocin” value is recorded as “greater antibacterial activity”.

B3: GN43: 439 amino acid lysin polypeptide, peptidase M23 of Pseudomonas (protein, listed as Pseudomonas sp.)
chain: MKRTTLNLELESNTDRLLQEKDDLLPQSVTNSSDEGTPFAQVEGASDDNTAEQDSDKPGASVADADTKPVDPEWKTITVASGDTLSTVFTKAGLSTSAMHDMLTSSKDAKRFTHLKVGQEVKLKLDPKGELQALRVKQSELETIGLDKTDKGYSFKREKAQIDLHTAYAHGRITSSLFVAGRNAGLPYNLVTSLSNIFGYDIDFALDLREGDEFDVIYEQHKVNGKQVATGNILAARFVNRGKTYTAVRYTNKQGNTSYYRADGSSMRKAFIRTPVDFARISSRFSLGRRHPILNKIRAHKGVDYAAPIGTPIKATGDGKILEAGRKGGYGNAVVIQHGQRYRTIYGHMSRFAKGIRAGTSVKQGQIIGYVGMTGLATGPHLHYEFQINGRHVDPLSAKLPMADPLGGADRKRFMAQTQPMIARMDQEKKTLLALNKQR
B3: the “antibacterial activity compared with HuLYS or novobiocin” value in test [2] is “greater antibacterial activity”.

B4: GN2: 147 amino acid lysin polypeptide, lysozyme class, from marine metagenome (protein)
chain: MKISLEGLSLIKKFEGCKLEAYKCSAGVWTIGYGHTAGVKEGDVCTQEEAEKLLRGDIFKFEEYVQDSVKVDLDQSQFDALVAWTFNLGPGNLRSSTMLKKLNNGEYESVPFEMRRWNKAGGKTLDGLIRRRQAESLLFESKEWHQV
modifications: hypothetical protein GOS_817346 [marine metagenome] (GenBank EDG23390.1)
B4: the “antibacterial activity compared with HuLYS or novobiocin” value in test [2] was “greater antibacterial activity”.

B5: GN4: 144 amino acid lysin polypeptide, putative endolysin of Pseudomonas phage PAJU2 (protein)
chain: MRTSQRGIDLIKSFEGLRLSAYQDSVGVWTIGYGTTRGVTRYMTITVEQAERMLSNDIQRFEPELDRLAKVPLNQNQWDALMSFVYNLGAANLASSTLLKLLNKGDYQGAADQFPRWVNAGGKRLDGLVKRRAAERALFLEPLS
modifications: Pseudomonas phage PAJU2
Consider B5, for which, in test [2], the “antibacterial activity compared with EDTA and PMB” value is on record as “equivalent antibacterial activity; also recorded: stronger or equivalent antibacterial activity”; the “antibacterial activity compared with HuLYS or novobiocin” value is recorded as “greater antibacterial activity”.
